Source: patent US20080045469A1 (published 2008)

Key:
[1] = target: recombinant human VEGF165 monomer (E. coli) (human, UniProt P15692-4 27-191); assay: in vitro reduction and refolding of E. coli proteins
Protocol: Recombinant human PLGF-1 (SEQ ID NO: 1) and VEGF₁ monomers were expressed in E. Coli as previously described⁴⁴. An equimolar of mixture of PLGF-1- and VEGF₁ homodimers, at a total protein concentration of 0.5 mg/ml, was incubated in reducing buffer (20 mM Tris-HC1, pH 8.0, 6 M guanidine-HC1, and 10 mM DTT) at 4° C. over night. The following day the protein solution was dialyzed against 10 volumes of refolding buffer (2 M urea, 20 mM Tris-HC1, pH 8.0, 2 mM GSH (glutathione-SH) and 0.5 mM GSSG (glutathione-S-S-glutathione)). Using this refolding protocol, a mixture of homodimeric PLGF-1 and VEGF₁ as well as heterodimeric PLGF-1/VEGF was generated.

[2] = target: the molecule itself; assay: sandwich ELISA of cell lysates and conditioned media of hPLGF-1-KDEL-LLC cells
From the text: To quantify the amounts of intracellular and extracellular dimeric molecules, a sensitive sandwich ELISA assay was used to analyze cell lysates and conditioned media from transduced and non-transduced LLC cell lines. Specific antibodies were used against each factor, either two antibodies against the same factor but raised in different species (homodimers) or two antibodies against different factors (heterodimers). As expected, a high level of mVEGF homodimers was detected in conditioned media from controls, wt LLC and vector-transduced LLC cells (Table 1).

[3] = target: T1, human VEGF165 expressed in transduced LLC cells (human), P15692; assay: sandwich ELISA of conditioned medium of hVEGF-LLC cells, homodimer format; conditions: remark: other sources report otherwise
T1 chain: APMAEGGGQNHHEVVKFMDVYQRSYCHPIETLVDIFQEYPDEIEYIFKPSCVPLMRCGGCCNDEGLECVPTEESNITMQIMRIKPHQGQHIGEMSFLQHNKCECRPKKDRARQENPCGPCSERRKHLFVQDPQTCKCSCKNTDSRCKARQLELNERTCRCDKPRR

B1: recombinant human PLGF-1 monomer (E. coli) (ligand)
chain: LPAVPPQQWALSAGNGSSEVEVVPFQEVWGRSYCRALERLVDVVSEYPSEVEHMFSPSCVSLLRCTGCCGDENLHCVPVETANVTMQLLKIRSGDRPSYVELTFSQHVRCECRPLREKMKPERCGDAVPRR
B1: binds [1].

B2: human PLGF-1 with C-terminal KDEL ER-retention signal (ligand)
chain: LPAVPPQQWALSAGNGSSEVEVVPFQEVWGRSYCRALERLVDVVSEYPSEVEHMFSPSCVSLLRCTGCCGDENLHCVPVETANVTMQLLKIRSGDRPSYVELTFSQHVRCECRPLREKMKPERCGDAVPRRKDEL
notes: Expressed in transduced LLC cells; also called hPLGF-1-KDEL; PLGF-1-KDEL
B2: binds [2].

B3: human VEGF165 expressed in transduced LLC cells, P15692 27-191 (ligand, UniProt P15692-4 27-191, looked up)
chain: T1 chain
Work on B3 yielded a homodimer concentration in conditioned medium [3] of 41900 pg/mL.
